Source: the supplement of paper PMC6757056
± gives the standard deviation of the averaged measurements.

B1: library; a variant is named by its letters at N, in order (parent)
chain: GCUGUCACCGAGAAACUGUGAAGUAUAUCUUAAACCUGGGCACUUAAAAGAUAUAUGGAGUUAGUAGUGCAACCUGCUCGGUCUGAUGAGUCCNNNNNNGGACGAAACAGC

Key:
cyclic di-GMP [1] = variants of: B1; test: normalized RNA/DNA level without ligand (relative to sTRSVctl = 100) (log10 (% of sTRSVctl)); HEK293T; ligand: cyclic di-GMP (c-di-GMP-II aptamer); higher = less ribozyme self-cleavage, higher mRNA level; conditions: reporter: mCherry (pCS4076), ligand present: no
In short: (§1)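 Ribozyme switch library plasmids linked to reporters were introduced into HEK293T cells at 4 µg per 6-well well, with ligand, if any, added 1 h before. Total RNA was extracted with EDTA 72 h later, reverse-transcribed, amplified, barcoded and sequenced. RNA level was computed from RNA over DNA reads relative to a spiked-in non-cleaving sequence or the top sequences, then scaled and log-transformed. The top set was 25 sequences, values were ×100 and log10, and the cutoff was ≥100 DNA reads.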

cyclic di-GMP [2] = variants of: B1; test: normalized RNA/DNA level with ligand (relative to sTRSVctl = 100) (log10 (% of sTRSVctl)); HEK293T; ligand: cyclic di-GMP (c-di-GMP-II aptamer); ligand concentration (+) RNA-Seq: 1 mM; higher = less ribozyme self-cleavage, higher mRNA level; conditions: reporter: mCherry (pCS4076), ligand present: yes
In short: as §1

Variant	normalized RNA/DNA level without ligand (log10) (cyclic di-GMP [1])	normalized RNA/DNA level with ligand (log10) (cyclic di-GMP [2])
ACCCAU	1.61 ± 0.018	1.79 ± 0.12
GCCAGC	1.67 ± 0.064	1.83 ± 0.18
GCCAGU	1.604 ± 0.016	1.82 ± 0.098
GCCGUC	1.54 ± 0.05	1.72 ± 0.12
GCCGUA	1.57 ± 0.099	1.74 ± 0.068
UCCAGG	1.81 ± 0.046	1.9 ± 0.14
UCCAGU	1.63 ± 0.021	1.84 ± 0.11
GCCCCG	1.799 ± 0.012	1.84 ± 0.086
GCCCCC	1.78 ± 0.026	1.88 ± 0.084
ACCCCA	1.744 ± 0.012	1.86 ± 0.1
ACCCCC	1.82 ± 0.064	1.91 ± 0.14
ACCCCU	1.74 ± 0.036	1.86 ± 0.076
ACCGGA	1.51 ± 0.13	1.71 ± 0.056
ACCGGC	1.784 ± 0.0037	1.92 ± 0.12
ACCGGG	1.84 ± 0.027	1.91 ± 0.12
ACCGGU	1.531 ± 0.003	1.76 ± 0.08
ACCAUU	1.56 ± 0.032	1.79 ± 0.1
ACCAUC	1.68 ± 0.04	1.81 ± 0.13
ACCAUG	1.61 ± 0.099	1.74 ± 0.057
GCCCAG	1.9 ± 0.036	1.97 ± 0.095

Variant	normalized RNA/DNA level without ligand (log10) (cyclic di-GMP [1])	normalized RNA/DNA level with ligand (log10) (cyclic di-GMP [2])
GCCCAU	1.67 ± 0.036	1.85 ± 0.15
GCCCAC	1.656 ± 0.0072	1.82 ± 0.14
GCCCAA	1.616 ± 0.011	1.77 ± 0.17
UCCCCG	1.82 ± 0.03	1.96 ± 0.11
UCCCCA	1.79 ± 0.034	1.91 ± 0.2
UCCCCU	1.78 ± 0.033	1.9 ± 0.13
UCCCCC	1.83 ± 0.088	1.92 ± 0.13
UCCCUC	1.78 ± 0.038	1.89 ± 0.14
UCCCUA	1.696 ± 0.014	1.84 ± 0.092
UCCCUU	1.69 ± 0.056	1.86 ± 0.14
ACCAGG	1.71 ± 0.037	1.77 ± 0.088
ACCAGA	1.39 ± 0.11	1.6 ± 0.13
ACCAGC	1.63 ± 0.064	1.77 ± 0.079
UCCGCG	1.774 ± 0.0088	1.89 ± 0.083
UCCGCU	1.75 ± 0.052	1.88 ± 0.08
UCCGCA	1.72 ± 0.021	1.86 ± 0.14
UCCGCC	1.75 ± 0.076	1.89 ± 0.11
UCCGAA	1.48 ± 0.015	1.69 ± 0.17
UCCGAC	1.65 ± 0.062	1.79 ± 0.1
UCCGAU	1.59 ± 0.041	1.79 ± 0.08

Variant	normalized RNA/DNA level without ligand (log10) (cyclic di-GMP [1])	normalized RNA/DNA level with ligand (log10) (cyclic di-GMP [2])
UCCGAG	1.64 ± 0.082	1.79 ± 0.11
GCCCUU	1.701 ± 0.0065	1.85 ± 0.097
GCCCUC	1.744 ± 0.0049	1.87 ± 0.12
GCCCUG	1.76 ± 0.021	1.86 ± 0.11
CCCGAC	1.7 ± 0.018	1.81 ± 0.14
CCCGAU	1.64 ± 0.027	1.83 ± 0.12
CCCGAG	1.56 ± 0.065	1.76 ± 0.11
ACCCUA	1.624 ± 0.011	1.78 ± 0.072
ACCCUU	1.66 ± 0.046	1.78 ± 0.12
UCCAUU	1.63 ± 0.023	1.81 ± 0.14
UCCAUA	1.53 ± 0.033	1.74 ± 0.13
UCCAUG	1.67 ± 0.021	1.85 ± 0.15
UCCAUC	1.7 ± 0.0059	1.8 ± 0.13
ACCGUC	1.73 ± 0.028	1.83 ± 0.11
ACCGUA	1.51 ± 0.034	1.68 ± 0.13
CCCAGC	1.72 ± 0.03	1.84 ± 0.16
CCCAGG	1.77 ± 0.025	1.89 ± 0.077
CCCAGU	1.736 ± 0.015	1.86 ± 0.068
